From paper PMC5597257

What was measured:
[1] = biological target: NbHUB1-GFP (Nicotiana benthamiana); assay: FRET or BRET; FRET by acceptor photobleaching in epidermal cells of N. benthamiana leaves; EGFP/GFP fusion as donor, DsRed fusion as acceptor; FRET efficiency (EF) in percent; without ChiLCV
[2] = biological target: NbUBC2-DsRed (Nicotiana benthamiana); assay: as above
[3] = biological target: Rep-DsRed (Chilli leaf curl virus); assay: FRET or BRET; FRET by acceptor photobleaching in epidermal cells of N. benthamiana leaves, in the presence of ChiLCV, Rep proteins organised as punctate bodies
[4] = biological target: NbUBC2-EGFP (Nicotiana benthamiana); assay: FRET or BRET; FRET by acceptor photobleaching in epidermal cells of N. benthamiana leaves; EGFP/GFP fusion as donor, DsRed fusion as acceptor; FRET efficiency (EF) in percent; without ChiLCV

Rep-DsRed (natural protein) gave an FRET efficiency [1] of 58.7%.
Work on Rep-EGFP (natural protein) yielded an FRET efficiency [2] of 43.7% and an FRET efficiency in the presence of ChiLCV [3] of 68.7%.
Substance Rep_(1-120)-DsRed (domain or fragment) has an FRET efficiency [1] of 45% and an FRET efficiency [4] of 38%.
For Rep_(1-180)-DsRed (domain or fragment), the FRET efficiency [1] was 44% and the FRET efficiency [4] was 40.5%.
With “Rep_(181-361)-DsRed (domain or fragment)” the FRET efficiency [1] was 58.5%.
